The target in test [1] is human Fn14 on cells (MEF Fn14-V5, U87-Luc/GFP, 231-Luc) (human). In words: human U87 glioma cells treated with fluorescent particles (FIG. 3C; legend says flow cytometry). (In flow cytometry, cells or beads pass a laser one at a time.)
For test [2] the target is unchanged. In words: flow cytometry, MEF Fn14-V5 cells expressing human Fn14.
The target of test [3] is Fn14 extracellular domain (recombinant, Cell Sciences). In words: SPR (Biacore 3000), Fn14 extracellular domain on CM5 chip, equilibrium fit, per nanoparticle. For orientation: SPR reads the build-up and loss of mass on a sensor chip optically.
Test [4] deals with human Fn14 on cells (MEF Fn14-V5, U87-Luc/GFP, 231-Luc) (human). As to the kind of experiment: flow cytometry, human U87-Luc/GFP GBM cells.
The target of test [5] is Fn14 extracellular domain (recombinant, Cell Sciences). In words: SPR (Biacore), ratio of KD against free ITEM4.
The target is the same in test [6]. As to the kind of experiment: SPR (Biacore 3000), Fn14 extracellular domain on CM5 chip, equilibrium fit.
The target is the same in test [7]. As to the kind of experiment: SPR (Biacore), Fn14 extracellular domain on chip, binding isotherm of RUeq, per nanoparticle.
Test [8] shares this target. As to the kind of experiment: SPR (Biacore), Fn14 chip, nanoparticles first incubated with mouse blood serum.
Test [9] addresses human Fn14 on cells (MEF Fn14-V5, U87-Luc/GFP, 231-Luc) (human). As to the kind of experiment: flow cytometry, 231-Luc cells.
Test [10] shares this target. In words: cell-based or functional assay.

The values below come from patent US20190328677A1.

In turn, “BPN conjugated with ITEM4 at high density” displayed a fold increase in binding to glioma cells against non-targeted BPN in test [1] of 4.5 fold.
In general, Kd refers to the concentration at which binding is half-saturated. In test [2], “CNP-ITEM4 (high): 100 nm PEG-coated polystyrene nanoparticles decorated with a high density of ITEM4” displayed a fold cellular uptake against CNP of 2.5 fold. The dissociation constant (Kd) in test [3] is 0.024 nM. This substance also had a fold cellular uptake efficiency against CNP alone in test [4] of 3.5 fold. For the same substance, the fold higher binding affinity than ITEM4 alone in test [5] was found to be 65 fold.
With “CNP-ITEM4 (low): 100 nm PEG-coated polystyrene nanoparticles decorated with a low density of ITEM4”, the Kd in [3] came to 0.106 nM. The fold cellular uptake efficiency against CNP alone in test [4] was determined as 1.25 fold. Moreover, the fold higher binding affinity than ITEM4 alone in test [5] is 15 fold.
For “ITEM4 monoclonal antibody (Fn14-specific monoclonal antibody)”, the Kd in [6] came to 1.62 nM.
For PLGA-PEG1%-ITEM41% nanoparticles, the equilibrium dissociation constant (Kd) in [7] was 3.2 nM.
PLGA-PEG5%-ITEM41% nanoparticles: the Kd in [7] stood at 2.4 nM.
In the case of PLGA-PEG10%-ITEM40.1% nanoparticles, the Kd in test [7] was found to be 26.5 nM.
“PLGA-PEG10%-ITEM41% nanoparticles (optimized DART nanoparticles)”: the Kd was found to be 6.1 nM in test [8] and 1.9 nM in test [7]. The substance also displayed a fold cellular association efficiency against PLGA-PEG in test [9] of 2.5 fold. In test [10], the IC50 (as paclitaxel), viability of 231-Luc cells by MTS assay, 2 h exposure then 24 h in fresh medium (in vitro clearance study), paclitaxel-loaded particles came out at 130 nM.
PLGA-PEG10%-ITEM410% nanoparticles: the Kd in test [7] amounted to 2.6 nM.
For the substance “thiol-modified ITEM4 (ITEM4-SH) (antibody)”, the Kd in test [6] came out at 1.57 nM.
